Here are results for two molecules from patent US20160046689A1 (NOVELOGICS BIOTECHNOLOGY, published 2016).

This assay deals with T1, recombinant extracellular alpha-3 domain of MICA (allele 001), Baculovirus-expressed, C-terminal His tag (human, UniProt Q29983 205-297).
T1 construct: Expressed in Sf9 cells and purified by Ni2+ chelation with 8M urea, then dialysed; also called alpha-3 domain MICA protein; target MICA alpha-3 domain recombinant protein
T1 sequence: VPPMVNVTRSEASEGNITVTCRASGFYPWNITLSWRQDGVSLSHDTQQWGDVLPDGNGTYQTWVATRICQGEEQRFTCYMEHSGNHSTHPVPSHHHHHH
As to the kind of experiment: BLI (Octet RED96), antibody captured by anti-mouse IgG, antigen in solution, pH 7.4, 1:1 model. The method, then: Biomolecular interactions between antigen and antibody were directly measured by Bio-Layer Interferometry (BLI) using a Pall ForteBio Octet RED96 machine (Pall ForteBio, CA, USA). Real-time kinetic analyses were performed on the test MICA monoclonal antibodies 1F5 and 8C7, as well as two control antibodies, one of which could bind the alpha-3 MICA subdomain antigen (positive control) and one of which could not (negative control, binds other MICA subdomains), as previously determined by ELISA. The Octet RED96 apparatus operates under the principle of Bio-Layer Interferometry, a label-free technique that measures molecular interactions and complex formation. A key component of the technique is the optical biosensor whose tip is immersed in the fluids of the test well and then used to assay interference patterns between waves of light. Here, the ligand (monoclonal antibody) is localized to the surface of the biosensor through capture by previously bound anti-mouse IgG, while the analyte biomolecule (antigen) is kept in solution. Binding responses between ligand and analyte were measured and reported in real-time. Both association and dissociation kinetics were monitored and KD values were calculated. This model assumed a 1:1 interaction of ligand to analyte.

B1: antibody 8C7 (antibody, IgG1, V domains shown)
VH: QIQLVQSGPELKKPGETVKISCKASGYTFTNYGMNWVKQAPGKGLKWMGWINTNTGEPTYAEEFKGRFAFSLETSASTAYLQINNLKNEDTATYFCARSGGSSPFAYWGQGTLVTVSA
VL: DIVMTQAAPSVPVTPGESVSISCRSSKSLLQSNGNTFLYWFMQRPGQSPQLLIYRMSNLASGVPDRFSGSGSGTAFTLRISRVEAEDVGVYYCMQHLEYPFTFGGGTKLEIKR
notes: Mouse hybridoma monoclonal, IgG1 heavy chain and kappa light chain; Tested as hybridoma supernatant in ELISA and FACS; also called antibody from clone 8C7; hybridoma clone 8C7
Take B1: the Kd (in general, the constant that tells how readily two partners part at equilibrium) is roughly 6.81 nM.

B2: antibody 1F5 (antibody, IgG1, V domains shown)
VH: QIQLVQSGPELKKPGETVKISCKASGYTFTDYSVHWVKQAPGKGLKWMGWINTETGEPTYADDFKGRFAFSLETSASTAYLQINNLKNEDTATYFCARAGGNAFAYWGQGTLVTVSA
VL: DIVLTQSPASLAVSLGQRATISCRASKSVSTSGYSYMHWYQQKPGQPPKLLIYRASNLESGVPARFSGSGSGTDFTLNIHPVEEEDAATYYCQHSRELPLTFGAGTKLELKR
notes: Mouse hybridoma monoclonal, IgG1 heavy chain and kappa light chain; Tested as hybridoma supernatant in ELISA and FACS; also called IF5; antibody from clone 1F5
As for B2, the Kd was roughly 0.783 nM.
